Reference: the supplement of paper PMC10567573

B1: PDZK1 (parent)
chain: QKEQGLSDNILSPVMNGGVQTWTQ
B2: IQUB (parent)
chain: EADYEDDSKIAFLMQLQDIQYLTE

Variants of: B1
Experiment: protein stability index of a GFP-peptide fusion (GPS, HEK-293T) (PSI 1-6); higher = more stable
Conditions: c terminus: a fixed tail appended
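Also: lentivirally expressed fusions sorted by FACS into six bins by GFP to DsRed ratio, PSI derived from sequencing read proportions per bin multiplied by bin number.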

Protein stability index: each site, then its substitutions
W22: S 5.05 | Q 5.24 | P 5.07 | R 5.04 | I 4.88 | N 5.08 | Y 4.09 | H 4.59 | K 4.93 | M 4.55
T23: Y 3.05 | S 3.43 | D 3.67 | W 2.96 | R 3.42 | Q 2.16 | M 3.74 | G 3.5 | K 3.39 | V 1.56 | P 4.25 | I 4 | N 3.12 | F 3.02
Q24: F 1.78 | M 2.26 | G 3.58 | S 1.68 | R 3.35 | D 3.13 | P 4.43 | C 2.14 | K 3.55 | T 3.66 | I 2.36 | H 2.84 | E 3.43 | V 2.72

Variants of: B2
Experiment: as above
Conditions: c terminus: a fixed tail appended

Protein stability index: each site, then its substitutions
I10: N 4.17 | M 3.2 | W 3.08 | R 3.82 | G 4.13 | S 3.91
S8: N 3.53 | M 2.7 | W 2.29 | I 2.15 | A 3.23 | Q 3.32
M14: F 2.46 | W 2.42
L22: M 3.4 | Q 3.83 | W 3.07
Y4: G 3.61 | F 3.16 | L 3.51 | I 3.21 | E 4.09 | P 4.15
D7: G 2.78 | V 1.96 | N 2.19 | T 2.19 | Q 3.2
Y21: S 3.52 | G 4.07 | Q 3.64 | C 3.74 | D 4.45 | N 3.87 | T 4.06 | M 3.45
E24: H 2.48 | P 3.29 | C 2.33 | D 3.32 | G 2.89
E1: V 1.74 | F 1.99
L16: V 3.71 | Q 4.19 | M 3.55 | F 3.42 | S 4.26 | A 4.13 | W 3.25
Q17: D 3.73 | H 3.13 | I 1.76 | C 2.25 | L 2.68
D3: F 1.62 | M 2.03 | R 2.34 | P 1.98 | E 2.88 | I 1.97 | C 1.69
L13: W 3.51 | M 3.26 | E 4.54 | Y 2.84 | H 4.15 | S 4.41
A11: S 2.94 | T 3.14 | I 1.99 | W 2.78 | M 2.66 | V 2.24
Q20: K 3.46 | C 2.2 | M 2.48 | H 3.12 | G 2.97 | N 3.22
Q15: T 2.19 | E 3.36 | V 1.76 | A 2.61 | F 1.77
A2: H 2.51 | T 2.93 | D 3.53 | C 2.75 | E 3.63 | L 3.46
T23: F 1.98 | W 1.97 | P 4.17 | D 4.09 | V 1.92
F12: Y 3.73 | G 4.66 | I 3.19 | R 4.38 | M 4.05
E5: D 3.42 | V 2.38 | H 2.62 | Y 2.27
K9: L 2.58 | G 2.81 | T 2.64 | D 3.63 | A 2.48
D6: G 2.38 | F 2.04 | I 2.21 | V 2.17 | A 2.21 | L 1.53
I19: H 3.98 | A 4.17 | S 4.35 | M 3.68 | G 4.31 | V 3.86
D18: P 2.83 | W 2.2 | N 2.58 | Y 1.54 | A 1.74 | G 2.92 | I 1.39
